Source: publication PMC12533644, “Nuclear 2′-O-methylation regulates RNA splicing through its binding protein FUBP1”

Molecular target: FUBP1-strep (UniProt Q96AE4 1-644)
Experiment: EMSA; EMSA: 10 mM Tris pH 7.5, 140 mM KCl, 10 mM NaCl, 1 mM MgCl2, 10% glycerol, 1 mM DTT, RNase inhibitor 1 U/ul, room temperature 30 min; probe 20 nM (Fig. 3A) or 10 nM (Fig. 5E, S5D). Pull-down: HepG2 lysate (50 mM Tris pH 7.5, 100 mM NaCl, 1% NP-40, 0.5% deoxycholate) + tRNA 50 ug/ml, RT 30 min then 4 C 90 min; washes 10 mM Tris pH 7.5, 150 mM KCl, 1.5 mM MgCl2, 0.1% NP-40, 0.5 mM DTT
Conditions: protein: recombinant; tags: C-terminal Strep-tag; label: 5' FAM

Sequence of FUBP1-strep (Q96AE4 whole entry): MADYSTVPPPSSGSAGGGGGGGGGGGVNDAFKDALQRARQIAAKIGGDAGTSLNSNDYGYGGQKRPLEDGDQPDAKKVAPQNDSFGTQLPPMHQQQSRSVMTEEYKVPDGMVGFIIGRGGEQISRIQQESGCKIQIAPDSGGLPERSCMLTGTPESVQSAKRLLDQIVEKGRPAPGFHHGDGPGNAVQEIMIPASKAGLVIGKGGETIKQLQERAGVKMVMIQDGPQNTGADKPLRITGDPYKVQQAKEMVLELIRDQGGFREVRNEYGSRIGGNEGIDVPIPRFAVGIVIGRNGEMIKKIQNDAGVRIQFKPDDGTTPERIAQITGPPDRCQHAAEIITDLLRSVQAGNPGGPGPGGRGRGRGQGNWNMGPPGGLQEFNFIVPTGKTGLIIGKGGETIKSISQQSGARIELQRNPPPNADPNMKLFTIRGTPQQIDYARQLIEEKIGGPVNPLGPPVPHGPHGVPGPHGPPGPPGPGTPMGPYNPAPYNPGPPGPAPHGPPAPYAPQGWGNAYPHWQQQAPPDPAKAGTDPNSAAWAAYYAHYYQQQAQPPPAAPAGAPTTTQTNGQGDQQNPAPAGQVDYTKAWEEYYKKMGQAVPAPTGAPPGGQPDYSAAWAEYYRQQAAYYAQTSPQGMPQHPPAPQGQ

Row | Binder | binding result
1 | ACUGAACGCCUUUAAGUCAGAAUCCCACCC (ssRNA, 2'-O-methyl at G4, G16, C18, A19, C24, C25, A27) [SEC14L1 Nm] | binds
2 | CGCUGAGUGCGCUGCACUGACCUUCUUCCA (ssRNA, 2'-O-methyl, multiple sites) [SNX5 Nm] | binds
